Test results reported in US11478551B2, “Long-acting adrenomedullin derivative” (University of Miyazaki, priority 2015, dated 2022).
Marks after values point to notes of the source that are not given here. Positions of bridges follow the written chain, without caps; N, C: chain ends. GL‑2‑branched CH3O‑PEG (40k)‑CH2 = glycerol skeleton-containing 2-branched methoxy-PEG (40 kDa) attached via alkylamine (CH2) linkage; GL‑2‑branched CH3O‑PEG (40k)‑CO = glycerol skeleton-containing 2-branched methoxy-PEG (40 kDa) attached via urethane (CO) linkage

Target: T1, AM receptor (Homo sapiens, UniProt O60895+Q16602)
T1 construct: expressed in transfected cells; host or cells: HEK293 cell line
T1 sequence (Q16602 23-461): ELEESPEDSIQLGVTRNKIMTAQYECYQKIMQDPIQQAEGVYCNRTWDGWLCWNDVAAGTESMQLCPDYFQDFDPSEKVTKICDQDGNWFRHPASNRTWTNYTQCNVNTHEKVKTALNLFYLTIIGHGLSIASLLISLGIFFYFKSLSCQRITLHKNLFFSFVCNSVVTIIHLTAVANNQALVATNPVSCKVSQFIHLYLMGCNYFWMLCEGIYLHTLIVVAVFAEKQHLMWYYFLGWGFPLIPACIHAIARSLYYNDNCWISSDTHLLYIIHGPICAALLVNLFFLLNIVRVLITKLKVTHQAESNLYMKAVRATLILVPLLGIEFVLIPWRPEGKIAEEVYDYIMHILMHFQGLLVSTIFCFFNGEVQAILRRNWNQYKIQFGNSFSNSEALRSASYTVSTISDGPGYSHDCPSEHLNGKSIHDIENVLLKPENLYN
T1 sequence (O60895 43-175): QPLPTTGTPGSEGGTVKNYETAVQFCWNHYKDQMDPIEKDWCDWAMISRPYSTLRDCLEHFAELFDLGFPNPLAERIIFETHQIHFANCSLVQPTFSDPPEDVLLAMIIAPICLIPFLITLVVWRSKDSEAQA
Experiment: Intracellular cAMP concentration-increasing effect in HEK293 cell line caused to express an AM receptor;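 also: cAMP inside confluent receptor-expressing cells quantified by ELISA after 15 min exposure to each peptide at 10^−8 mol/L alongside 0.5 mM IBMX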
Format: cell-based
Conditions: for Intracellular cAMP concentration-increasing effect (%): 10^−8 mol/L, 15 minutes, 0.5 mM IBMX; for influence of N-terminal deletion of the peptide moiety on the intracellular cAMP concentration-increasing effect: in words

[1] = percentage with respect to h.AM (1-52)
[2] = percentage with respect to h.AM (16-52)
[3] = percentage with respect to h.AM (6-52)

Intracellular cAMP concentration-increasing effect (%) [1] [%]	Substance	influence of N-terminal deletion of the peptide moiety on the intracellular cAMP concentration-increasing effect	other results
97	CH3O-PEG (20k)-(CH2)2—CH2-^αNH-(h.AM (16-52)) ({CH3O‑PEG (20k)‑(CH2)2—CH2}-CRFGTCTVQKLAHQIYQFTDKDKDNVAPRSKISPQGY-NH2; disulfide 1-6 (inferred); ends not checked) [Compound (23)]	high intracellular cAMP concentration-increasing effect without the influence of the N-terminal deletion	–
97	CH3O-PEG (20k)-(CH2)2—CH2-^αNH-(h.AM (11-52)) ({CH3O‑PEG (20k)‑(CH2)2—CH2}-LRSFGCRFGTCTVQKLAHQIYQFTDKDKDNVAPRSKISPQGY-NH2; disulfide 6-11 (inferred); ends not checked) [Compound (22)]	high intracellular cAMP concentration-increasing effect without the influence of the N-terminal deletion	–
77	GL-2-branched CH3O-PEG (40k)-CH2-^αNH-(h.AM (6-52)) ({GL‑2‑branched CH3O‑PEG (40k)‑CH2}-NNFQGLRSFGCRFGTCTVQKLAHQIYQFTDKDKDNVAPRSKISPQGY-NH2; disulfide 11-16 (inferred); ends not checked) [Compound (29)]	–	–
104	GL-2-branched CH3O-PEG (20k)-CO-^αNH-(h.AM (11-52)) ({GL‑2‑branched CH3O‑PEG (20k)‑CO}-LRSFGCRFGTCTVQKLAHQIYQFTDKDKDNVAPRSKISPQGY-NH2; disulfide 6-11 (inferred); ends not checked) [Compound (31)]	–	–

The next lines start with the substance.

Substance	Intracellular cAMP concentration-increasing effect (%) [1] [%]	influence of N-terminal deletion of the peptide moiety on the intracellular cAMP concentration-increasing effect	other results
GL-2-branched CH3O-PEG (40k)-CH2-^αNH-(h.AM (16-52)) ({GL‑2‑branched CH3O‑PEG (40k)‑CH2}-CRFGTCTVQKLAHQIYQFTDKDKDNVAPRSKISPQGY-NH2; disulfide 1-6 (inferred); ends not checked) [Compound (24)]	–	–	Intracellular cAMP concentration-increasing effect (%) [2]: 93***^) %
GL-2-branched CH3O-PEG (20k)-CO-^αNH-(h.AM (16-52)) ({GL‑2‑branched CH3O‑PEG (20k)‑CO}-CRFGTCTVQKLAHQIYQFTDKDKDNVAPRSKISPQGY-NH2; disulfide 1-6 (inferred); ends not checked) [Compound (32)]	96	–	–
GL-4-branched CH3O-PEG (40k)-CO-^αNH-(h.AM (6-52)) ({GL‑4‑branched CH3O‑PEG (40k)‑CO}-NNFQGLRSFGCRFGTCTVQKLAHQIYQFTDKDKDNVAPRSKISPQGY-NH2; disulfide 11-16 (inferred); ends not checked) [Compound (34)]	83	–	–
GL-2-branched CH3O-PEG (40k)-CH2-^αNH-(h.AM (1-52)-Gly) [Compound (36)]	–	–	Intracellular cAMP concentration-increasing effect (%) (percentage with respect to h.AM (1-52)-Gly): 96****^) %
GL-2-branched CH3O-PEG (20k)-CO-^αNH-(h.AM (6-52)) ({GL‑2‑branched CH3O‑PEG (20k)‑CO}-NNFQGLRSFGCRFGTCTVQKLAHQIYQFTDKDKDNVAPRSKISPQGY-NH2; disulfide 11-16 (inferred); ends not checked) [Compound (30)]	99	–	–
CH3O-PEG (5k)-(CH2)2—CH2-^αNH-(h.AM (16-52)) ({CH3O‑PEG (5k)‑(CH2)2—CH2}-CRFGTCTVQKLAHQIYQFTDKDKDNVAPRSKISPQGY-NH2; disulfide 1-6 (inferred); ends not checked) [Compound (20)]	39	suppressed the influence of N-terminal deletion	–
CH3O-PEG (5k)-(CH2)2—CH2-^αNH-(h.AM (6-52)) ({CH3O‑PEG (5k)‑(CH2)2—CH2}-NNFQGLRSFGCRFGTCTVQKLAHQIYQFTDKDKDNVAPRSKISPQGY-NH2; disulfide 11-16 (inferred); ends not checked) [Compound (18)]	90	suppressed the influence of N-terminal deletion	–
CH3O-PEG (5k)-(CH2)5—CO-^αNH-(h.AM (16-52)) ({CH3O‑PEG (5k)‑(CH2)5—CO}-CRFGTCTVQKLAHQIYQFTDKDKDNVAPRSKISPQGY-NH2; disulfide 1-6 (inferred); ends not checked) [Compound (17), amide linkage-type PEG (5k) adrenomedullin derivative, reference compound]	–	significantly decreased	Intracellular cAMP concentration-increasing effect (%) [2]: 9***^) %
CH3O-PEG (20k)-(CH2)2—CH2-^αNH-(h.AM (6-52)) ({CH3O‑PEG (20k)‑(CH2)2—CH2}-NNFQGLRSFGCRFGTCTVQKLAHQIYQFTDKDKDNVAPRSKISPQGY-NH2; disulfide 11-16 (inferred); ends not checked) [Compound (21)]	–	high intracellular cAMP concentration-increasing effect without the influence of the N-terminal deletion	Intracellular cAMP concentration-increasing effect (%) [3]: 98*^) %
CH3O-PEG (5k)-(CH2)5-CO-^αNH-(h.AM (11-52)) ({CH3O‑PEG (5k)‑(CH2)5‑CO}-LRSFGCRFGTCTVQKLAHQIYQFTDKDKDNVAPRSKISPQGY-NH2; disulfide 6-11 (inferred); ends not checked) [Compound (16), amide linkage-type PEG (5k) adrenomedullin derivative, reference compound]	–	significantly decreased	Intracellular cAMP concentration-increasing effect (%) (percentage with respect to h.AM (11-52)): 1**^) %
CH3O-PEG (5k)-(CH2)5—CO-^αNH-(h.AM (6-52)) ({CH3O‑PEG (5k)‑(CH2)5—CO}-NNFQGLRSFGCRFGTCTVQKLAHQIYQFTDKDKDNVAPRSKISPQGY-NH2; disulfide 11-16 (inferred); ends not checked) [Compound (15), amide linkage-type PEG (5k) adrenomedullin derivative, reference compound]	–	significantly decreased	Intracellular cAMP concentration-increasing effect (%) [3]: 101*^) %
GL-2-branched CH3O-PEG (40k)-CO-^αNH-(h.AM (16-52)) ({GL‑2‑branched CH3O‑PEG (40k)‑CO}-CRFGTCTVQKLAHQIYQFTDKDKDNVAPRSKISPQGY-NH2; disulfide 1-6 (inferred); ends not checked) [Compound (33)]	61	–	–
CH3O-PEG (5k)-(CH2)2—CH2-^αNH-(h.AM (11-52)) ({CH3O‑PEG (5k)‑(CH2)2—CH2}-LRSFGCRFGTCTVQKLAHQIYQFTDKDKDNVAPRSKISPQGY-NH2; disulfide 6-11 (inferred); ends not checked) [Compound (19)]	80	suppressed the influence of N-terminal deletion	–
